Laboratory results: patent publication US20210032365A1 (Chugai, published 2021)

T1: human C1s (human, UniProt P09871 16-688)
T1 construct: Analyte in the Biacore assays; also called hC1s; serum-derived human C1s (CompTech)
T1 sequence: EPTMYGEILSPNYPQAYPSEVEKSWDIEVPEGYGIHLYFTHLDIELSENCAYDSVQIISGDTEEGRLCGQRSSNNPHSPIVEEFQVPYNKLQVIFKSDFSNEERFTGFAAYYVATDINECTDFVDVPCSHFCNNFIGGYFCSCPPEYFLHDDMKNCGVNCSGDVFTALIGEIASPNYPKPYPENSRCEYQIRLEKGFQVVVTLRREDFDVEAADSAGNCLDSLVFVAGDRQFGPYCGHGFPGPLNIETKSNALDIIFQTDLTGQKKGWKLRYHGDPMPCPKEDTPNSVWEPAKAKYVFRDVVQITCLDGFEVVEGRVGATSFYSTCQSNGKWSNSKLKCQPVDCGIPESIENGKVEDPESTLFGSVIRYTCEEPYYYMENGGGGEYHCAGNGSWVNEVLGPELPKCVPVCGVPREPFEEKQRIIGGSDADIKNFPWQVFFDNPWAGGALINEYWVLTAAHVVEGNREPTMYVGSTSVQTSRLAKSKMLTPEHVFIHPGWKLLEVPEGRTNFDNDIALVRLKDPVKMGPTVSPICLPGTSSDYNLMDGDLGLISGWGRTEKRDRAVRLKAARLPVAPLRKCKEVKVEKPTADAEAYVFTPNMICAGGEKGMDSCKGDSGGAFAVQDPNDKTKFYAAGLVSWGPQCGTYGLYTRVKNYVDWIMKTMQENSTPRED


Columns and labels:
[1] = molecular target: T1, human C1s; test: SPR; KD at pH 5.8 (1.2 mM Ca) over KD at pH 7.4 (1.2 mM Ca)
Procedure: (§1) Each antibody was captured onto the sensor surface by protein A/G. Antibody capture levels were aimed at 200 resonance unit (RU). Serum-derived human C1s (CompTech) or recombinant C1s prepared in EXAMPLE 1 was injected at 50 nM, followed by dissociation. The sensor surface was regenerated in each cycle with 10 mM Glycine-HCl, pH 1.5. […] The ratio of KD 5.8+ to KD 7.4+(“KD 5+/7+”) and that of KD 5.8− to KD 7.4+(“KD 5−/7+”) were calculated. When the KD 5+/7+ or KD 5−/7+ of a variant is larger than that of the parent antibody IPN009VH2-SG4GK/IPN009VK3-SK1, that variant is considered to be “pH”- or “pH and Ca”-dependent, respectively. When binding response in 5(+) buffer and/or in 5(−) buffer of a variant is much lower than that of IPN09VH2/IPN009VK3, that variant is also considered as “pH”- and/or “pH and Ca”-dependent. Therefore, such mutations are effective to generate “pH”- and/or “pH and Ca”-dependent antibody. To further enhance “pH” and/or “pH and Ca” dependency, a combination of histidine mutations was conducted. Antibodies with combinations of histidine mutations were evaluated using Biacore by the method described above.
(§2) C1_1IPN92H0033 (SEQ ID NO: 17)-SG4GK/IPN93L0024 (SEQ ID NO: 18)-SK1 (IPN92H0033/IPN93L0024) was selected for further optimization. Histidine, Lysine, Arginine, aspartic acid, glutamic acid, and glutamine scanning was conducted for CDRs and certain positions of FRs of IPN92H0033/IPN93L0024. Variants with a mutation were generated and purified, and evaluated using Biacore by the method mentioned above. All variants were evaluated using Biacore as mentioned above. Mutations that improved “pH” and/or “pH and Ca” dependency were selected for the combination.

[2] = molecular target: T1, human C1s; test: SPR; KD at pH 5.8 (3 uM Ca) over KD at pH 7.4 (1.2 mM Ca)
Procedure: as §1, §2

[3] = molecular target: T1, human C1s; test: SPR (Biacore T200, 37C), Ab captured on protein A/G; pH 5.8, 1.2 mM Ca
Procedure: as §1, §2

[4] = molecular target: T1, human C1s; test: SPR (Biacore T200, 37C), Ab captured on protein A/G; pH 5.8, 3 uM Ca
Procedure: as §1, §2

Row | Binder | KD 5(+)/7(+) [1] | KD 5(-)/7(+) [2] | Kd [3] [nM] | koff [3] [s⁻¹] | kon [3] [M⁻¹ s⁻¹] | Kd [4] [nM] | koff [4] [s⁻¹] | kon [4] [M⁻¹ s⁻¹]
1 | C1_IPN92H0160-SG4GK/IPN93L0024-SK1 (antibody, human IgG4 S228P, kappa, name in Kabat numbering, V domains shown, Substitutions from IPN009VH2, Kabat numbering; also called IPN92H0160/IPN93L0024) VH: EVMLVESGGGLVKPGGSLRLSCAASGFTFSNYAMSWVRQAPGKGLEWVATISSGGSHTYELDSVKGRFTISRDNSKDTLYLQMNSLRAEDTALYYCARLFTGHAMDYWGQGTLVTVSS VL: QIVLTQSPATLSLSPGERATLSCTASSSVSSSYLHWYQQKPGKAPKLWIYSTSNLASGVPSRFSGSGSGTDYTLTISSLQPEDFATYYCHQYYRLHPITFGQGTKLEIKR | 9 | 4.82 | 13.7 | 0.00634 | 461000 | 7.32 | 0.00411 | 562000
2 | C1_IPN92H0165-SG4GK/IPN93L0024-SK1 (antibody, human IgG4 S228P, kappa, name in Kabat numbering, V domains shown, Substitutions from IPN009VH2, Kabat numbering; also called IPN92H0165/IPN93L0024) VH: EVMLVESGGGLVKPGGSLRLSCAASGFTFSNYAMSWVRQAPGKGLEWVATISSGGSHTYYDDSVKGRFTISRDNSKDTLYLQMNSLRAEDTALYYCARLFTGHAMDYWGQGTLVTVSS VL: QIVLTQSPATLSLSPGERATLSCTASSSVSSSYLHWYQQKPGKAPKLWIYSTSNLASGVPSRFSGSGSGTDYTLTISSLQPEDFATYYCHQYYRLHPITFGQGTKLEIKR | 2.1 | 4.62 | 3.74 | 0.00228 | 608000 | 8.18 | 0.715 | 8.74e+07
3 | C1_IPN92H0193-SG4GK/IPN93L0024-SK1 (antibody, human IgG4 S228P, kappa, name in Kabat numbering, V domains shown, Substitutions from IPN009VH2, Kabat numbering; also called IPN92H0193/IPN93L0024) VH: EVMLVESGGGLVKPGGSLRLSCAASGFTFSNYAMSWVRQAPGKGLEWVATISSGGSHTYYLDSVKDRFTISRDNSKDTLYLQMNSLRAEDTALYYCARLFTGHAMDYWGQGTLVTVSS VL: QIVLTQSPATLSLSPGERATLSCTASSSVSSSYLHWYQQKPGKAPKLWIYSTSNLASGVPSRFSGSGSGTDYTLTISSLQPEDFATYYCHQYYRLHPITFGQGTKLEIKR | 6.2 | 3.47 | 5.74 | 0.00417 | 727000 | 3.21 | 0.0685 | 2.14e+07
4 | C1_IPN92H0166-SG4GK/IPN93L0024-SK1 (antibody, human IgG4 S228P, kappa, name in Kabat numbering, V domains shown, Substitutions from IPN009VH2, Kabat numbering; also called IPN92H0166/IPN93L0024) VH: EVMLVESGGGLVKPGGSLRLSCAASGFTFSNYAMSWVRQAPGKGLEWVATISSGGSHTYYEDSVKGRFTISRDNSKDTLYLQMNSLRAEDTALYYCARLFTGHAMDYWGQGTLVTVSS VL: QIVLTQSPATLSLSPGERATLSCTASSSVSSSYLHWYQQKPGKAPKLWIYSTSNLASGVPSRFSGSGSGTDYTLTISSLQPEDFATYYCHQYYRLHPITFGQGTKLEIKR | 2.1 | 3.84 | 3.77 | 0.00226 | 600000 | 6.75 | 0.687 | 1.02e+08
5 | C1_IPN92H0253-SG4GK/IPN93L0024-SK1 (antibody, human IgG4 S228P, kappa, name in Kabat numbering, V domains shown, Substitutions from IPN009VH2, Kabat numbering; also called IPN92H0253/IPN93L0024) VH: EVMLVESGGGLVKPGGSLRLSCAASGFTFSNYAMSWVRQAPGKGLEWVATISSGGSHTYYLDSVKGRFTISRDNSKDTLYLQMNSLRAEDTALYYCARLFTGHAMKYWGQGTLVTVSS VL: QIVLTQSPATLSLSPGERATLSCTASSSVSSSYLHWYQQKPGKAPKLWIYSTSNLASGVPSRFSGSGSGTDYTLTISSLQPEDFATYYCHQYYRLHPITFGQGTKLEIKR | 12.6 | 210 | 1.52 | 0.000717 | 471000 | 25.4 | 0.0147 | 578000
6 | C1_IPN92H0188-SG4GK/IPN93L0024-SK1 (antibody, human IgG4 S228P, kappa, name in Kabat numbering, V domains shown, Substitutions from IPN009VH2, Kabat numbering; also called IPN92H0188/IPN93L0024) VH: EVMLVESGGGLVKPGGSLRLSCAASGFTFSNYAMSWVRQAPGKGLEWVATISSGGSHTYYLDSVDGRFTISRDNSKDTLYLQMNSLRAEDTALYYCARLFTGHAMDYWGQGTLVTVSS VL: QIVLTQSPATLSLSPGERATLSCTASSSVSSSYLHWYQQKPGKAPKLWIYSTSNLASGVPSRFSGSGSGTDYTLTISSLQPEDFATYYCHQYYRLHPITFGQGTKLEIKR | 4 | 2.07 | 8.21 | 0.00413 | 504000 | 4.21 | 0.0106 | 2.53e+06
